Laboratory results from patent US20080057519A1.

Key:
[1] = target: FLJ32028 with an HA epitope tag fused to the predicted C-terminal end of the protein (human) (UniProt Q6P9G4); test: flow cytometry on intact transfected 293-EBNA cells, streptavidin-PE detection
[2] = target: FLJ32028 with an HA epitope tag inserted at the predicted N-terminal end of the protein (human) (UniProt Q6P9G4); test: as above

% of transfected GFP+ cells negative for HA [1]: 85%
% of transfected GFP+ cells positive for HA [2]: > 99%
Substance: biotinylated Rat Anti-HA antibody (Roche)
